Measurements from patent publication US20150218257A1.

Experiments:
Experiment in all cases: cell-based or functional assay
[1] = target: HIV-1 JR-CSF(I309A) Env on pseudovirus (HIV-1 isolate JR-CSF) (UniProt P20871)
[2] = target: HIV-1 JR-CSF Env (gp160), on transfected 293/293T cells or on JR-CSF pseudovirus (HIV-1 isolate JR-CSF) (UniProt P20871)
[3] = target: HIV-1 JR-FL(E168K) Env on pseudovirus (HIV-1 strain JR-FL)
[4] = target: HIV-1 JR-CSF(Y318A) Env on pseudovirus (HIV-1 isolate JR-CSF) (UniProt P20871)
[5] = target: HIV-1 92RW020 Env on pseudovirus (HIV-1 strain 92RW020)
[6] = target: HIV-1 ADA Env (gp160), on transfected 293 cells or on ADA pseudovirus (HIV-1 strain ADA)

| Binder | IC50 (ug/ml), pseudovirus neutralisation, TZM-bl assay [1] | IC50 (ug/ml), pseudovirus neutralisation, TZM-bl assay [2] | IC50 (ug/ml), pseudovirus neutralisation, TZM-bl assay [3] | IC50 (ug/ml), pseudovirus neutralisation, TZM-bl assay [4] | IC50 (ug/ml), pseudovirus neutralisation, TZM-bl assay [5] | IC50 (ug/ml), pseudovirus neutralisation, TZM-bl assay [6] |
| --- | --- | --- | --- | --- | --- | --- |
| 1503_H05 (PG16) antibody, sister clone of 1443_C16 (antibody, V domains shown) VH: QEKLVESGGGVVQPGGSLRLSCLASGFTFHKYGMHWVRQAPGKGLEWVALISDDGMRKYHSDSMWGRVTISRDNSKNTLYLQFSSLKVEDTAMFFCAREAGGPIWHDDVKYYDFNDGYYNYHYMDVWGKGTIVTVSS VL: QSALTQPASVSGSPGQTITISCNGTRSDVGGFDSVSWYQQSPGKAPKVMVFDVSHRPSGISNRFSGSKSGNTASLTISGLHIEDEGDYFCSSLTDRSHRIFGGGTKVTVLG | > 1 µg/mL | 0.001 µg/mL | 0.002 µg/mL | > 1 µg/mL | 0.02 µg/mL | 0.003 µg/mL |
| 1456_A12 (PG16) antibody, sister clone of 1443_C16 (antibody, V domains shown) VH: HEQLVEAGGGVVQPGGSLRLSCLASGFTFHKYGMHWVRQAPGKGLEWVALISDDGMRKYHSDSMWGRVTISRDNSKNTLYLQFSSLRVEDTAMFFCAREAGGPIWHDDVKYYDFNDGYYNYHYMDVWGKGTKVTVSS VL: QSALTQPASVSGSPGQTITISCNGTSRDVGGFDSVSWYQQSPGKAPKVMVFDVSHRPSGMSNRFSGSKSGNTASLTISGLHIEDEGDYFCSSLTDRSHRIFGGGTKLTVLG | > 1 µg/mL | 0.001 µg/mL | 0.003 µg/mL | > 1 µg/mL | 0.05 µg/mL | 0.005 µg/mL |
| 1469_M23 (PG16) antibody, sister clone of 1443_C16 (antibody, V domains shown) VH: QEKLVESGGGVVQPGGSLRLSCLASGFTFHKYGMHWVRQAPGKGLEWVALISDDGMRKYHSDSMWGRVTISRDNSKNTLYLQFSSLKVEDTAMFFCAREAGGPIWHDDVKYYDFNDGYYNYHYMDVWGKGTTVTVSS VL: QSALTQPASVSGSPGQTITISCNGTRSDVGGFDSVSWYQQSPGRAPKVMVFDVSHRPSGISNRFSGSKSGNTASLTISGLHIEDEGDYFCSSLTDRSHRIFGGGTKLTVLG | > 1 µg/mL | 0.002 µg/mL | 0.005 µg/mL | > 1 µg/mL | 0.05 µg/mL | 0.005 µg/mL |
| 1489_I13 (PG16) antibody, sister clone of 1443_C16 (antibody, V domains shown) VH: QEQLLESGGGVVQPGGSLRLSCLASGFTFHKYGMHWVRQAPGKGLEWVALISDDGMRKYHSNSMWGRVTISRDNSKNTLYLQFSSLKVEDTAMFFCAREAGGPIWHDDVKYYDFNDGYYNYHYMDVWGKGTTVTVSS VL: QSALTQPASVSGSPGQTITISCNGTSSDVGGFDSVSWYQQSPGKAPKVMVFDVSHRPSGISNRFSGSKSGNTASLTISGLHIEDEGDYFCSSLTDRSHRIFGGGTKVTVLG | > 1 µg/mL | 0.002 µg/mL | 0.005 µg/mL | > 1 µg/mL | 0.03 µg/mL | 0.008 µg/mL |
